From US20190248904A1 (Astellas, published 2019)
Read-outs that look alike come from different tables or passages of the source.

T1: human BDCA-2 variant (human, UniProt Q8WTT0 1-213)
T1 construct: It was expressed on CHO-K1 cells together with full-length human FcεRIγ; also called human BDCA-2 variant/CHO cells; extracellular region of human BDCA-2
T1 chain: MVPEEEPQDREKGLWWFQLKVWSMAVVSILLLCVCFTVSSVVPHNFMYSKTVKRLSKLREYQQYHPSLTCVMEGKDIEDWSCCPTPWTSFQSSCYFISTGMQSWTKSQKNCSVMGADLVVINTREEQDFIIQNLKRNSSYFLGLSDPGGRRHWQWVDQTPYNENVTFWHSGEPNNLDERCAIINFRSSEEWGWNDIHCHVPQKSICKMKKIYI

T2: human BDCA-2 (human, UniProt Q8WTT0 1-213)
T2 sequence: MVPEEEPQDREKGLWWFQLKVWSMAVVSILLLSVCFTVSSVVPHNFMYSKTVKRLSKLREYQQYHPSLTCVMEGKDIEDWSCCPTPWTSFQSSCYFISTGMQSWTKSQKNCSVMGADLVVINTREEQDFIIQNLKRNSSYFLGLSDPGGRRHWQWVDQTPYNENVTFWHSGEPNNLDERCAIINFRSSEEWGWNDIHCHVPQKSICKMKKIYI


Columns and labels:
human BDCA-2 variant [1] = target: T1, human BDCA-2 variant; assay: cell ELISA on human BDCA-2 variant/CHO cells, chemiluminescence
Experimental: (§1) In order to measure the antigen-specific binding activity of the antibody, the binding of the antibody to the human BDCA-2 variant/CHO cells prepared in Example 1 was evaluated. Specifically, the human BDCA-2 variant/CHO cells were first suspended in an RPMI1640 culture medium (Life Technologies, Inc.) at 2×10⁵ cells/mL, seeded at 50 μL per well in a poly-D-lysine-coated 384-well plate (Greiner Bio-One), and cultured overnight in a CO₂ incubator set at 37° C. Then, the culture medium was removed, and 20 μL of each of a hybridoma-derived antibody (the antibody purified in Example 2) and a comparative antibody which had been diluted stepwise from a concentration of 10000 ng/mL to 4.6 ng/mL (8 steps in a 3-fold dilution series) with a diluent solution (a Hank's Balanced Salt solution supplemented with 1% bovine serum albumin) was added thereto and reacted at room temperature for 1 hour. Next, the assay plate was washed with a washing solution (a Hank's Balanced Salt solution supplemented with 0.1% bovine serum albumin) and 20 μL of an HRP-labeled rabbit anti-mouse IgG antibody ([…]: Dako Ltd.) which had been diluted 5000-fold with a diluent solution was added thereto, and reacted at room temperature for 30 minutes. Thereafter, the assay plate was washed with a washing solution, 30 μL of BM-Chemiluminescence ELISA Substrate (POD) (Roche Diagnostics. Inc.) which is a chemiluminescence detection reagent was added thereto, and the amount of chemiluminescence thereof was measured by an EnVision counter (PerkinElmer, Inc.). For the measurement results, the EC50 values were determined by fitting a four-parameter logistic curve. In this test, as a comparative antibody, AC144 (Non-Patent Documents 1 to 4, Miltenyi Biotec) which is a mouse antibody against human BDCA-2 was used.

human BDCA-2 [2] = target: T2, human BDCA-2; assay: cell-based or functional assay
human BDCA-2 [3] = target: T2, human BDCA-2; assay: cell-based or functional assay; remark: listed apart in the source
human BDCA-2 [4] = target: T2, human BDCA-2; assay: cell-based or functional assay; remark: listed apart in the source
human BDCA-2 variant [5] = target: T1, human BDCA-2 variant; assay: cell ELISA on human BDCA-2 variant/CHO cells, average of three independent tests
Experimental: as §1
According to the method of Example 3, for a fully human antibody, the binding activity of the antibody against an extracellular region of human BDCA-2 was evaluated. […]

| Molecule | EC50 (human BDCA-2 variant [1]) | IC50 of inhibition of IFNα production from ODN2216-stimulated human PBMC (pDCs) (human BDCA-2 [3]) | IC90 of inhibition of IFNα production from ODN2216-stimulated human PBMC (pDCs) (human BDCA-2 [3]) | IC50 of inhibition of IFNα production from human PBMC (pDCs), first time (human BDCA-2 [4]) | IC50 of inhibition of IFNα production from human PBMC (pDCs), second time (human BDCA-2 [4]) | IC90 of inhibition of IFNα production from human PBMC (pDCs), first time (human BDCA-2 [4]) | IC90 of inhibition of IFNα production from human PBMC (pDCs), second time (human BDCA-2 [4]) | EC50 (human BDCA-2 variant [5]) | also measured |
| --- | --- | --- | --- | --- | --- | --- | --- | --- | --- |
| AC144 (antibody) | 0.133 µg/mL | – | – | – | – | – | – | – | IC50 of inhibition of IFNα production from ODN2216-stimulated human PBMC (pDCs) (human BDCA-2 [2]): 2.57 ng/mL; IC50 of inhibition of IFNα production from human PBMC (pDCs), first time (human BDCA-2 [2]): 2.12 ng/mL; IC50 of inhibition of IFNα production from human PBMC (pDCs), second time (human BDCA-2 [2]): 3.83 ng/mL; IC90 of inhibition of IFNα production from ODN2216-stimulated human PBMC (pDCs) (human BDCA-2 [2]): 56.5 ng/mL; IC90 of inhibition of IFNα production from human PBMC (pDCs), first time (human BDCA-2 [2]): 20.6 ng/mL; IC90 of inhibition of IFNα production from human PBMC (pDCs), second time (human BDCA-2 [2]): 26.8 ng/mL |
| BDC3-12A2 (chimeric) (antibody, V domains shown, Hybridoma-derived VelocImmune antibody: human variable regions with mouse constant regions) VH: QVQLVESGGGVVQPGRSLRLSCAASGFTLSSYGMHWVRQAPGKGLEWVAVIWYDGNDKYYADSVKGRFTISRDNSKNTLYLQVNSLRAEDTAVYYCARGTGTPYWYFDLWGRGTLVTVSS VL: EIVLTQSPATLSLSPGERATLSCRASQSVNNYLAWYQQKPGQAPRLLIYDASNRATGIPARFSGSGSGTDFTLTISSLEPEDFAVYYCQQRSTWPPYTFGQGTKLEIKR | 0.059 µg/mL | 0.27 ng/mL | 1.03 ng/mL | – | – | – | – | – | – |
| BDC3-12F5 (chimeric) (antibody, V domains shown, Hybridoma-derived VelocImmune antibody: human variable regions with mouse constant regions) VH: EVQLVESGGGLVQPGGSLRLSCAASGFTFSNYLMNWVRQAPGKGLEWVANIEQDGSEKYYVDSVKGRFTISRDNAKNSLYLQMNSLRAEDTAVYFCARDGDTAMITFDFWGQGTLVTVSS VL: DIQMTQSPSSVSASVGDRVTITCRASQGIRRWLAWYQQKPGKAPKLLIYAASSLQRGVPSRFSGSGSGTDFTLTISSLQPEDFATYYCQQANSFPWTFGQGTKVEIKR | 0.057 µg/mL | 0.23 ng/mL | 0.93 ng/mL | – | – | – | – | – | – |

Further lines, with some results ahead:

| EC50 (human BDCA-2 variant [1]) | IC50 of inhibition of IFNα production from ODN2216-stimulated human PBMC (pDCs) (human BDCA-2 [3]) | IC90 of inhibition of IFNα production from ODN2216-stimulated human PBMC (pDCs) (human BDCA-2 [3]) | IC50 of inhibition of IFNα production from human PBMC (pDCs), first time (human BDCA-2 [4]) | IC50 of inhibition of IFNα production from human PBMC (pDCs), second time (human BDCA-2 [4]) | IC90 of inhibition of IFNα production from human PBMC (pDCs), first time (human BDCA-2 [4]) | IC90 of inhibition of IFNα production from human PBMC (pDCs), second time (human BDCA-2 [4]) | EC50 (human BDCA-2 variant [5]) | Molecule | also measured |
| --- | --- | --- | --- | --- | --- | --- | --- | --- | --- |
| – | – | – | 0.35 ng/mL | 0.68 ng/mL | 1.94 ng/mL | 1.76 ng/mL | 0.08 µg/mL | Fully human BDC3-12A2 (antibody, human IgG1, kappa, V domains shown, pyroglutamylation at the N terminal of the heavy chain and deletion of lysine at the C terminal of the heavy chain in most of the purified antibody (Example 6), Human Igγ1 / human Igκ constant regions, expressed in CHOK1SV cells; also called fully human antibody of BDC3-12A2) VH: QVQLVESGGGVVQPGRSLRLSCAASGFTLSSYGMHWVRQAPGKGLEWVAVIWYDGNDKYYADSVKGRFTISRDNSKNTLYLQVNSLRAEDTAVYYCARGTGTPYWYFDLWGRGTLVTVSS VL: EIVLTQSPATLSLSPGERATLSCRASQSVNNYLAWYQQKPGQAPRLLIYDASNRATGIPARFSGSGSGTDFTLTISSLEPEDFAVYYCQQRSTWPPYTFGQGTKLEIKR | – |
| – | – | – | 0.54 ng/mL | 0.24 ng/mL | 1.19 ng/mL | 1.98 ng/mL | 0.088 µg/mL | Fully human BDC3-12F5 (antibody, human IgG1, kappa, V domains shown, deletion of lysine at the C terminal of the heavy chain in most of the purified antibody (Example 6), Human Igγ1 / human Igκ constant regions, expressed in CHOK1SV cells; also called fully human antibody of BDC3-12F5) VH: EVQLVESGGGLVQPGGSLRLSCAASGFTFSNYLMNWVRQAPGKGLEWVANIEQDGSEKYYVDSVKGRFTISRDNAKNSLYLQMNSLRAEDTAVYFCARDGDTAMITFDFWGQGTLVTVSS VL: DIQMTQSPSSVSASVGDRVTITCRASQGIRRWLAWYQQKPGKAPKLLIYAASSLQRGVPSRFSGSGSGTDFTLTISSLQPEDFATYYCQQANSFPWTFGQGTKVEIKR | – |
| – | – | – | 0.32 ng/mL | 0.59 ng/mL | 2.03 ng/mL | 1.25 ng/mL | 0.203 µg/mL | Fully human BDC13-32E3 (antibody, human IgG1, kappa, V domains shown, pyroglutamylation at the N terminal of the heavy chain and deletion of lysine at the C terminal of the heavy chain in most of the purified antibody (Example 6), Human Igγ1 / human Igκ constant regions, expressed in CHOK1SV cells; also called fully human antibody of BDC13-32E3) VH: QVQLQESGPGLVKPSQTLSLTCTVSGGSISSGGYYWNWIRQHPGKGLEWIGYIYYSGNTYYNPSLKSRVTISVDTSKNQFSLKLSSVTAADAAVYHCARGYGDYGGGYFDYWGQGTLVTVSS VL: DIQMTQSPSSLSASVGDRVTITCQASQDISNYLNWYQQKPGKAPKFLIYDVSNLETGVPSRFSGSGSGTDFTFTISSLQPEDIATYYCQQYDNLPYTFGQGTKLEIKR | – |
| 0.096 µg/mL | 0.43 ng/mL | 1.03 ng/mL | – | – | – | – | – | BDC13-32E3 (chimeric) (antibody, V domains shown, Hybridoma-derived VelocImmune antibody: human variable regions with mouse constant regions) VH: QVQLQESGPGLVKPSQTLSLTCTVSGGSISSGGYYWNWIRQHPGKGLEWIGYIYYSGNTYYNPSLKSRVTISVDTSKNQFSLKLSSVTAADAAVYHCARGYGDYGGGYFDYWGQGTLVTVSS VL: DIQMTQSPSSLSASVGDRVTITCQASQDISNYLNWYQQKPGKAPKFLIYDVSNLETGVPSRFSGSGSGTDFTFTISSLQPEDIATYYCQQYDNLPYTFGQGTKLEIKR | – |
